Test results taken from the supplement of paper PMC10065799, “High-throughput profiling of sequence recognition by tyrosine kinases and SH2 domains using bacterial peptide display” (eLife, 2023).

system: c-Src; experiment: phosphorylation enrichment, bacterial display (enrichment ratio); higher = better substrate or ligand; peptides without Tyr show the background
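Throughout, for SH2 binding enrichment of the phosphorylated peptide, bacterial display: peptide library displayed on the E. coli surface as eCPX fusions, selected cells deep-sequenced, score is each peptide's frequency after selection divided by its frequency in the input.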
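Throughout, for phosphorylation enrichment, bacterial display: 11-residue human phosphosite peptides and single-mutation variants displayed on the E. coli surface, counted by deep sequencing, each peptide's frequency after selection divided by its frequency in the unselected input library; frequency after pTyr selection over input frequency; kinase dosed for 20-30% of maximal phosphorylation in three min.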

First: KGNMFYENSFA [EGFR_Y113_R108K_YF]
Second: RAIGHYSATSK [FAM120A_Y328_Y327H]
The phosphorylation enrichment of the first is lower: 0.45 for the first, 0.665 for the second.

First: HGTKVYIDPFT [EPHB4_Y590]
Second: DGTVHYVDEKG [IFT140_Y216]
The phosphorylation enrichment of the first is higher: 0.49 for the first, 0.376 for the second.

First: SKEPFYVHCIK [MYO1D_Y586_R588H_YF]
Second: MKGDFYRSLAE [YWHAG_Y131_Y133S_YF]
The phosphorylation enrichment of the first is lower: 0.418 for the first, 0.441 for the second.

Compared with RHTRSYDYMEG [FGF7_Y56], ASKEPYYVHCI [MYO1D_Y585_R588H] is higher in phosphorylation enrichment: 0.389 for the first, 0.576 for the second.

Compared with HNMPIYEGFAL [ACTA1_Y168_V165M_YF], LQEQNYLAVDS [FAM114A1_Y115] is lower in phosphorylation enrichment: 13.2 for the first, 0.673 for the second.

First: LTSKPYAFTAW [NDUFS1_Y236_R241W]
Second: CDYKKYGKGLR [ZNF445_Y433_Y428C]
The phosphorylation enrichment of the first is higher: 0.4 for the first, 0.299 for the second.

First: VRALTYCDLHK [KCNH2_Y827]
Second: HFGNNYRDVLQ [MACC1_Y803_YF]
The phosphorylation enrichment of the first is lower: 0.392 for the first, 0.65 for the second.

Going from TPSGNYVACGG [GNB1_Y111_A106T] to GHLYAYDWIRI [BEST1_Y227_S231R], the phosphorylation enrichment rises from 0.783 to 2.28.

First: RFVTRHIFNRE [HLA-DQB1_Y62_Y62H_YF]
Second: RHLQEYQDPLN [GFAP_Y349_L352P]
The phosphorylation enrichment of the first is higher: 0.62 for the first, 0.503 for the second.

Going from VFGVSYDEFRF [CFTR_Y512_I507V_YF] to KNNSIYVVANI [VNN1_Y134], the phosphorylation enrichment falls from 2.83 to 0.705.

First: RRGLLYDSDEE [MCM2_Y137]
Second: PRPAGYPSTVS [CACNA1C_Y1832]
The phosphorylation enrichment of the first is higher: 0.763 for the first, 0.735 for the second.

Going from GGMTEYKLVVV [KRAS_Y4] to HYEFKYVINAI [MAOA_Y268_C266F], the phosphorylation enrichment rises from 0.369 to 0.536.

First: SVMVPYEPPEV [TP53_Y220_V217M]
Second: DHAGEYGAEAL [HBA1_Y25_A20D]
The phosphorylation enrichment of the first is higher: 0.465 for the first, 0.405 for the second.

First: VKALKYKSMKI [ITGA11_Y1098_L1093V]
Second: DKATEYIQFMR [MAX_Y70_YF]
The phosphorylation enrichment of the first is lower: 0.306 for the first, 0.703 for the second.

Sequence AFPVSYSSSGA [RET_Y687] has a phosphorylation enrichment of 0.477.

biological target: Grb2 SH2 (UniProt P62993); experiment: SH2 binding enrichment of the phosphorylated peptide, bacterial display (enrichment ratio); higher = better substrate or ligand; peptides without Tyr show the background
Sequence (P62993 whole entry, looked up): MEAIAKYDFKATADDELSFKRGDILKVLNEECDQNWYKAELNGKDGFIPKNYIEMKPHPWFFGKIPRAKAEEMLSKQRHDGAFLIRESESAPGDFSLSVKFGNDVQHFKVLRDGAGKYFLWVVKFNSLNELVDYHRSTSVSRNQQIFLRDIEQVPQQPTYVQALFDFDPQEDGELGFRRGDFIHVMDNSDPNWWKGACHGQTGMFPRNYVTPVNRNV

Compared with KGNMFYENSFA [EGFR_Y113_R108K_YF], RAIGHYSATSK [FAM120A_Y328_Y327H] is lower in SH2 binding enrichment: 19.5 for the first, 0.702 for the second.

Going from HGTKVYIDPFT [EPHB4_Y590] to DGTVHYVDEKG [IFT140_Y216], the SH2 binding enrichment falls from 1.21 to 0.64.

Going from SKEPFYVHCIK [MYO1D_Y586_R588H_YF] to MKGDFYRSLAE [YWHAG_Y131_Y133S_YF], the SH2 binding enrichment falls from 0.981 to 0.758.

First: RHTRSYDYMEG [FGF7_Y56]
Second: ASKEPYYVHCI [MYO1D_Y585_R588H]
The SH2 binding enrichment of the first is higher: 1.33 for the first, 0.924 for the second.

First: HNMPIYEGFAL [ACTA1_Y168_V165M_YF]
Second: LQEQNYLAVDS [FAM114A1_Y115]
The SH2 binding enrichment of the first is lower: 0.607 for the first, 0.725 for the second.

First: LTSKPYAFTAW [NDUFS1_Y236_R241W]
Second: CDYKKYGKGLR [ZNF445_Y433_Y428C]
The SH2 binding enrichment of the first is higher: 1.01 for the first, 0.882 for the second.

Going from VRALTYCDLHK [KCNH2_Y827] to HFGNNYRDVLQ [MACC1_Y803_YF], the SH2 binding enrichment rises from 0.885 to 0.909.

First: TPSGNYVACGG [GNB1_Y111_A106T]
Second: GHLYAYDWIRI [BEST1_Y227_S231R]
The SH2 binding enrichment of the first is lower: 1.14 for the first, 1.25 for the second.

First: RFVTRHIFNRE [HLA-DQB1_Y62_Y62H_YF]
Second: RHLQEYQDPLN [GFAP_Y349_L352P]
The SH2 binding enrichment of the first is lower: 0.443 for the first, 0.949 for the second.

First: VFGVSYDEFRF [CFTR_Y512_I507V_YF]
Second: KNNSIYVVANI [VNN1_Y134]
The SH2 binding enrichment of the first is lower: 0.984 for the first, 1.08 for the second.

First: RRGLLYDSDEE [MCM2_Y137]
Second: PRPAGYPSTVS [CACNA1C_Y1832]
The SH2 binding enrichment of the first is lower: 0.661 for the first, 1 for the second.

First: GGMTEYKLVVV [KRAS_Y4]
Second: HYEFKYVINAI [MAOA_Y268_C266F]
The SH2 binding enrichment of the first is higher: 0.985 for the first, 0.868 for the second.

First: SVMVPYEPPEV [TP53_Y220_V217M]
Second: DHAGEYGAEAL [HBA1_Y25_A20D]
The SH2 binding enrichment of the first is lower: 0.786 for the first, 0.825 for the second.

First: VKALKYKSMKI [ITGA11_Y1098_L1093V]
Second: DKATEYIQFMR [MAX_Y70_YF]
The SH2 binding enrichment of the first is higher: 1.29 for the first, 0.887 for the second.

Sequence AFPVSYSSSGA [RET_Y687] has an SH2 binding enrichment of 0.767.

biological target: SHP2-C SH2; experiment: as above

First: KGNMFYENSFA [EGFR_Y113_R108K_YF]
Second: RAIGHYSATSK [FAM120A_Y328_Y327H]
The SH2 binding enrichment of the first is higher: 1 for the first, 0.81 for the second.

Going from HGTKVYIDPFT [EPHB4_Y590] to DGTVHYVDEKG [IFT140_Y216], the SH2 binding enrichment falls from 1.62 to 0.544.

First: SKEPFYVHCIK [MYO1D_Y586_R588H_YF]
Second: MKGDFYRSLAE [YWHAG_Y131_Y133S_YF]
The SH2 binding enrichment of the first is higher: 0.898 for the first, 0.551 for the second.

Compared with RHTRSYDYMEG [FGF7_Y56], ASKEPYYVHCI [MYO1D_Y585_R588H] is lower in SH2 binding enrichment: 1.06 for the first, 0.889 for the second.

First: HNMPIYEGFAL [ACTA1_Y168_V165M_YF]
Second: LQEQNYLAVDS [FAM114A1_Y115]
The SH2 binding enrichment of the first is higher: 0.847 for the first, 0.53 for the second.

First: LTSKPYAFTAW [NDUFS1_Y236_R241W]
Second: CDYKKYGKGLR [ZNF445_Y433_Y428C]
The SH2 binding enrichment of the first is higher: 0.992 for the first, 0.805 for the second.

Compared with VRALTYCDLHK [KCNH2_Y827], HFGNNYRDVLQ [MACC1_Y803_YF] is higher in SH2 binding enrichment: 0.968 for the first, 2.13 for the second.

Compared with TPSGNYVACGG [GNB1_Y111_A106T], GHLYAYDWIRI [BEST1_Y227_S231R] is higher in SH2 binding enrichment: 1.25 for the first, 1.31 for the second.

Going from RFVTRHIFNRE [HLA-DQB1_Y62_Y62H_YF] to RHLQEYQDPLN [GFAP_Y349_L352P], the SH2 binding enrichment rises from 0.721 to 0.842.

Going from VFGVSYDEFRF [CFTR_Y512_I507V_YF] to KNNSIYVVANI [VNN1_Y134], the SH2 binding enrichment falls from 1.09 to 1.05.

Going from RRGLLYDSDEE [MCM2_Y137] to PRPAGYPSTVS [CACNA1C_Y1832], the SH2 binding enrichment falls from 0.81 to 0.621.

Compared with GGMTEYKLVVV [KRAS_Y4], HYEFKYVINAI [MAOA_Y268_C266F] is lower in SH2 binding enrichment: 2.14 for the first, 0.69 for the second.

First: SVMVPYEPPEV [TP53_Y220_V217M]
Second: DHAGEYGAEAL [HBA1_Y25_A20D]
The SH2 binding enrichment of the first is lower: 0.626 for the first, 1.11 for the second.

First: VKALKYKSMKI [ITGA11_Y1098_L1093V]
Second: DKATEYIQFMR [MAX_Y70_YF]
The SH2 binding enrichment of the first is higher: 1.23 for the first, 0.608 for the second.

With AFPVSYSSSGA [RET_Y687] the SH2 binding enrichment was 0.65.

biological target: c-Src SH2; experiment: as above

Compared with KGNMFYENSFA [EGFR_Y113_R108K_YF], RAIGHYSATSK [FAM120A_Y328_Y327H] is lower in SH2 binding enrichment: 2.98 for the first, 0.619 for the second.

First: HGTKVYIDPFT [EPHB4_Y590]
Second: DGTVHYVDEKG [IFT140_Y216]
The SH2 binding enrichment of the first is higher: 0.788 for the first, 0.381 for the second.

Compared with SKEPFYVHCIK [MYO1D_Y586_R588H_YF], MKGDFYRSLAE [YWHAG_Y131_Y133S_YF] is lower in SH2 binding enrichment: 0.574 for the first, 0.352 for the second.

Compared with RHTRSYDYMEG [FGF7_Y56], ASKEPYYVHCI [MYO1D_Y585_R588H] is lower in SH2 binding enrichment: 3.83 for the first, 0.685 for the second.

Compared with HNMPIYEGFAL [ACTA1_Y168_V165M_YF], LQEQNYLAVDS [FAM114A1_Y115] is higher in SH2 binding enrichment: 0.431 for the first, 0.644 for the second.

Going from LTSKPYAFTAW [NDUFS1_Y236_R241W] to CDYKKYGKGLR [ZNF445_Y433_Y428C], the SH2 binding enrichment falls from 0.749 to 0.6.

Going from VRALTYCDLHK [KCNH2_Y827] to HFGNNYRDVLQ [MACC1_Y803_YF], the SH2 binding enrichment falls from 0.715 to 0.472.

First: TPSGNYVACGG [GNB1_Y111_A106T]
Second: GHLYAYDWIRI [BEST1_Y227_S231R]
The SH2 binding enrichment of the first is lower: 1.73 for the first, 1.97 for the second.

Going from RFVTRHIFNRE [HLA-DQB1_Y62_Y62H_YF] to RHLQEYQDPLN [GFAP_Y349_L352P], the SH2 binding enrichment rises from 0.293 to 0.645.

First: VFGVSYDEFRF [CFTR_Y512_I507V_YF]
Second: KNNSIYVVANI [VNN1_Y134]
The SH2 binding enrichment of the first is higher: 0.859 for the first, 0.671 for the second.

Going from RRGLLYDSDEE [MCM2_Y137] to PRPAGYPSTVS [CACNA1C_Y1832], the SH2 binding enrichment falls from 0.606 to 0.484.

First: GGMTEYKLVVV [KRAS_Y4]
Second: HYEFKYVINAI [MAOA_Y268_C266F]
The SH2 binding enrichment of the first is higher: 0.649 for the first, 0.582 for the second.

First: SVMVPYEPPEV [TP53_Y220_V217M]
Second: DHAGEYGAEAL [HBA1_Y25_A20D]
The SH2 binding enrichment of the first is higher: 0.608 for the first, 0.506 for the second.

Going from VKALKYKSMKI [ITGA11_Y1098_L1093V] to DKATEYIQFMR [MAX_Y70_YF], the SH2 binding enrichment falls from 1.14 to 0.565.

AFPVSYSSSGA [RET_Y687] gave an SH2 binding enrichment of 0.506.
